Assay results taken from PMC11849073, “Specific recognition mechanism of an antibody to sulfated tyrosine and its potential use in biological research” (The Journal of Biological Chemistry, 2025).
Several values for one entry are separate records, joined by “and”; a condition that tells them apart may be missing. Equal values may be shown once. Entries after “also recorded” stand apart in the source; their conditions may differ.

Legend:
[1] = test system: endogenous CCR5 expressed on TZM-bl; assay: Flow cytometry binding to TZM-bl cells; format: cell-based; conditions: BA8 full-length IgG, read-out: BC50 (the source's name)
Method: Cells were aliquoted into 96 Well Conical (V) Bottom Plates (ThermoFisher Scientific) at 50,000 cells per sample and fixed with 2% paraformaldehyde at 4 °C for 30 min. After a PBS wash, 50 μl of goat anti-rabbit IgG Alexa 488 (Invitrogen) diluted 1000-fold by PBS were added to the sample. After incubation at 4 °C for 30 min, PBS washed cells were diluted with PBS containing 2% fetal bovine serum, and flow cytometry was performed using a FACS Canto system (BD Biosciences).

[2] = test system: YU2 (CCR5 tropic strain) strain in TZM-bl cells; assay: Pseudoviral assay (single-round viral infective assay) in TZM-bl cells; format: cell-based, HIV; conditions: 48 h post-infection, luciferase read-out, BA8 up to 50 μg/ml (approximately 350 nM)
Method: Subsequently, we conducted a pseudoviral test using TZM-bl cells.
The anti-HIV activity of BA8, isotype control antibody, and Maraviroc (Sigma-Aldrich) in a single-round viral infective assay against the YU2 (CCR5 tropic strain) strain in TZM-bl cells. At 48 h post-infection, cells were lysed, and relative light units were measured using a Steady-Glo luciferase assay system and GloMax Discover microplate reader (Promega).

[3] = test system: sulfated N-terminal peptide of CCR5; assay: SPR kinetic interaction analysis of BA8 Fab (wild type and mutants) with the sulfated peptide; format: binding; conditions: SPR Biacore 8K, PBS 0.005% Tween 20, global fitting
Excerpt: To quantitatively evaluate the intermolecular interaction between BA8 and the sulfated N-terminal peptide of CCR5, we prepared a Fab fragment of BA8 as a recombinant protein (Fig. S2, A and B) and conducted kinetic interaction analysis using SPR. The Fab was immobilized on a sensor chip using amine coupling, and the synthesized sulfated and non-sulfated N-terminal peptides of CCR5 were used as the analytes.
To further dissect how molecular recognition occurs, we evaluated the contribution of individual residues of BA8 to the recognition of the sulfated peptide. We analyzed the crystal structure using the PDB PISA server, and we conducted mutation analyses in which the residues predicted to form hydrogen bonds or located at the interface were mutated to alanine (Fig. 3B).
The bindings of the peptides to Fabs were analyzed using a Biacore 8K instrument (Cytiva). Each Fab was immobilized on the surface of a CM5 sensor chip (Cytiva) by the amine-coupling method according to the manufacturer’s instructions in the condition of pH 5.5. The immobilization level reached to about 3000 Response Unit (RU). PBS containing 0.005% Tween 20 was used as the running buffer. The kinetic data were obtained by injection of increasing concentrations of peptides into the sensor chip. The flow rate of the analyte were set to 30 μl/min. The data were analyzed using BIAevaluation software (Cytiva), and the binding affinity as well as kinetic parameters were calculated by a global fitting of the curves.

[4] = Fab immobilized on CM5 chip, sulfated peptide as analyte

B1: BA8: rabbit antibody clone from phage display that specifically recognizes the sulfated N-terminal peptide of CCR5 (antibody, V domains shown)
VH: QSLEESGGGLFKPTDTLTLTCTVSGFSLSSYSIRWVRQAPGNGLEWIGAIGSGGNAYYTSWAKSRSTITRNTNENTVTLKMTSLTVADTATYFCARGGINFGIWGPGTLVTVSS
VL: AAVLTQTPSPVSAAVGSTVTINCQSSQSVYSKNWLSWFQQKPGQPPKQLIYSASTLDSGVPSRFSGSGSGTQFTLTISGVQCDDAATYYCQGTYGDASAFGGGTEVVVK
[1]
  EC50: 49 nM and ~50 nM
[2]
  inhibition of HIV infection, in words: did not significantly inhibit the infection; also recorded: did not show inhibitory activity
[3]; Fab immobilized on CM5 chip by amine coupling (~3000 RU), sulfated peptide as analyte (2 to 162 nM; 20 nM to 1620 nM for the weak mutants of Fig. 3), 30 μl/min
  kon: 251000 mol/L/s
[3]; [4]
  Kd: 0.809 nM
  koff: 0.000203 s⁻¹
